{
  "source": "patent US20230103584A1",
  "about": "(BLACK BELT THERAPEUTICS, published 2023)",
  "molecules": {"B1": {"name": "aCD38-b-348 (human IgG1) (antibody, V domains shown)", "VH": "QLQLQESGPGLVKPSETLSLTCTVSGGSISSSDYYWGWIRQPPGKGLEWIGSIYYSGSTYYNPSLKSRVTISVDTSKNQFSLKLSSVTAADTAVYYCARGQYSSGWYAYPFDMWGQGTMVTVSS", "VL": "EIVLTQSPGTLSLSPGERATLSCRASQSVRSSYLAWYQQKPGQAPRLLIYGASSRATGIPDRFSGSGSGTDFTLTISRLEPEDFAVYYCQQDGNVYTFGGGTKVEIK", "notes": "First made as IgG in yeast"}, "B2": {"name": "aCD38-b-348-m4 (antibody, IgG1, V domains shown)", "VH": "B1 VH", "VL": "B1 VL with D92E"}, "B3": {"name": "aCD38-b-348-m2 (antibody, IgG1, V domains shown)", "VH": "B1 VH", "VL": "B1 VL with G93S"}, "B4": {"name": "aCD38-b-348-m3 (antibody, IgG1, V domains shown)", "VH": "B1 VH", "VL": "B1 VL with G93A"}, "B5": {"name": "aCD38-b-348-m1 (antibody, IgG1, V domains shown)", "VH": "B1 VH", "VL": "B1 VL with D92E, G93A"}},
  "key": {"[1]": {"biological_target": "Recombinant, Histidine-tagged extracellular domain of human CD38 (human) (UniProt P28907)", "assay": "ForteBio BLI"}, "[2]": {"biological_target": "T1, Human CD38 expressed on cells (Daudi, Raji, Jurkat, human PBMC/T cells, Tregs, HEK-293T transfectants) (human, UniProt P28907 1-300)", "T1 sequence": "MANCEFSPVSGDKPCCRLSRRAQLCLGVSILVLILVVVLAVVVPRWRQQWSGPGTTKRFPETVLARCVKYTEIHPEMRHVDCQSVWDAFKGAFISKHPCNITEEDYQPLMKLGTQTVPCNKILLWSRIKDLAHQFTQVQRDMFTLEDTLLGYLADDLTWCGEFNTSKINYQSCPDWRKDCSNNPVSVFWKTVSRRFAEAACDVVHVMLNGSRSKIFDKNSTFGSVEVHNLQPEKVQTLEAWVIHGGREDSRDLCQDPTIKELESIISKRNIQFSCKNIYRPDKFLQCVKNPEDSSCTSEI", "assay": "cell-based or functional assay"}, "[3]": {"biological_target": "T1, Human CD38 expressed on cells (Daudi, …)", "assay": "cell-based or functional assay", "remark": "listed apart in the source"}, "[4]": {"biological_target": "T1, Human CD38 expressed on cells (Daudi, …)", "assay": "cell-based or functional assay", "remark": "listed apart in the source"}, "[5]": {"biological_target": "T1, Human CD38 expressed on cells (Daudi, …)", "assay": "cell-based or functional assay", "remark": "listed apart in the source"}, "[6]": {"biological_target": "T2, Cynomolgus monkey CD38 expressed on T cells / PBMC (Cynomolgus monkey, UniProt Q5VAN0 1-301)", "T2 construct": "whole, on cells; also called cyno T cells; cynomolgus pan T cells", "T2 sequence (looked up)": "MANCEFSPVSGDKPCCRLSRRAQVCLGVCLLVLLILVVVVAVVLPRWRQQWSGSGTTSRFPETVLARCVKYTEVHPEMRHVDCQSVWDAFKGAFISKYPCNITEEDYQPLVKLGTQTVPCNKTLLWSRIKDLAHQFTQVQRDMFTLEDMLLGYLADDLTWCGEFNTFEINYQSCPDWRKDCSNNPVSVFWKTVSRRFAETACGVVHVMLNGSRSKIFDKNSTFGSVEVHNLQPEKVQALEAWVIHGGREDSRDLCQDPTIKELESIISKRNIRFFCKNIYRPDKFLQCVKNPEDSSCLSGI", "assay": "flow cytometry on cynomolgus cells, gated on CD4-positive cells, secondary antibody staining"}, "[7]": {"biological_target": "T2, Cynomolgus monkey CD38 expressed on T …", "assay": "flow cytometry on cynomolgus cells, gated on CD8-positive cells, secondary antibody staining"}},
  "note": "Numbering of substitutions follows the chain as printed.",
  "data": [
    {"molecule": "IB4, reference monoclonal agonistic mouse anti-human CD38 antibody", "values": [
      {"measurement": "Kd", "setting": "[1]", "result": 9, "unit": "nM"}
    ]},
    {"molecule": "B1", "values": [
      {"measurement": "ADCC EC50, target Daudi cells (experiment 6)", "setting": "[2]", "result": 0.00032, "unit": "µg/mL"},
      {"measurement": "ADCC EC50, target Daudi cells (experiment 7)", "setting": "[2]", "result": 0.0008, "unit": "µg/mL"},
      {"measurement": "ADCC EC50, target Daudi cells (experiment 8)", "setting": "[2]", "result": 0.00042, "unit": "µg/mL"},
      {"measurement": "CDC EC50, 10% complement, target Daudi cells (experiment 15)", "setting": "[3]", "result": 0.17, "unit": "µg/mL"},
      {"measurement": "CDC EC50, 10% complement, target Daudi cells (experiment 16)", "setting": "[3]", "result": 0.34, "unit": "µg/mL"},
      {"measurement": "CDC EC50, 10% complement, target Daudi cells (experiment 17)", "setting": "[3]", "result": 0.26, "unit": "µg/mL"},
      {"measurement": "CDC EC50, 10% complement, target Raji cells", "setting": "[4]", "result": 0.3, "unit": "µg/mL"},
      {"measurement": "CDC EC50, 10% complement, target Raji cells (repeat)", "setting": "[4]", "result": 0.17, "unit": "µg/mL"},
      {"measurement": "ADCC Max. % lysis", "setting": "[5]", "result": 44, "unit": "%"},
      {"measurement": "EC50 (read off the curve)", "setting": "[6]", "result": "~0.9", "unit": "µg/mL"},
      {"measurement": "EC50 (read off the curve)", "setting": "[7]", "result": "~0.9", "unit": "µg/mL"}
    ]},
    {"molecule": "B2", "values": [
      {"measurement": "ADCC Max. % lysis", "setting": "[5]", "result": 38, "unit": "%"}
    ]},
    {"molecule": "B3", "values": [
      {"measurement": "ADCC Max. % lysis", "setting": "[5]", "result": 44, "unit": "%"}
    ]},
    {"molecule": "B4", "values": [
      {"measurement": "ADCC Max. % lysis", "setting": "[5]", "result": 39, "unit": "%"}
    ]},
    {"molecule": "B5", "values": [
      {"measurement": "ADCC Max. % lysis", "setting": "[5]", "result": 38, "unit": "%"}
    ]}
  ]
}
